# Reference: IntAct's records for PubMed 35512704
# B1: Speckle-type POZ protein (Homo sapiens), O43791 (parent)
# chain: MSRVPSPPPPAEMSSGPVAESWCYTQIKVVKFSYMWTINNFSFCREEMGEVIKSSTFSSGANDKLKWCLRVNPKGLDEESKDYLSLYLLLVSCPKSEVRAKFKFSILNAKGEETKAMESQRAYRFVQGKDWGFKKFIRRDFLLDEANGLLPDDKLTLFCEVSVVQDSVNISGQNTMNMVKVPECRLADELGGLWENSRFTDCCLCVAGQEFQAHKAILAARSPVFSAMFEHEMEESKKNRVEINDVEPEVFKEMMCFIYTGKAPNLDKMADDLLAAADKYALERLKVMCEDALCSNLSVENAAEILILADLHSADQLKTQAVDFINYHASDVLETSGWKSMVVSHPHLVAEAYRSLASAQCPFLGPPRKRLKQS
# Variants of: B1
# Conditions: with cdc27_human CDC27, P30260
row,Variant,effect of a mutation on the interaction
1,Y87C,with no effect

# Variants of: B1
# Conditions: with cdc73_human CDC73, Q6P1J9
row,Variant,effect of a mutation on the interaction
1,Y87C,with no effect

# Variants of: B1
# Conditions: with cdk4_human CDK4, P11802
row,Variant,effect of a mutation on the interaction
1,Y87C,with no effect

# Variants of: B1
# Conditions: with cdk6_human CDK6, Q00534
row,Variant,effect of a mutation on the interaction
1,Y87C,with no effect

# Variants of: B1
# Conditions: with cdn2c_human CDKN2C
row,Variant,effect of a mutation on the interaction
1,Y87C,with no effect

# Variants of: B1
# Conditions: with chd1l_human CHD1L
row,Variant,effect of a mutation on the interaction
1,Y87C,with no effect

# Variants of: B1
# Conditions: with chd2_human CHD2, O14647
row,Variant,effect of a mutation on the interaction
1,Y87C,with no effect

# Variants of: B1
# Conditions: with chk2_human CHEK2, O96017
# chk2_human CHEK2, O96017, sequence (O96017 whole entry): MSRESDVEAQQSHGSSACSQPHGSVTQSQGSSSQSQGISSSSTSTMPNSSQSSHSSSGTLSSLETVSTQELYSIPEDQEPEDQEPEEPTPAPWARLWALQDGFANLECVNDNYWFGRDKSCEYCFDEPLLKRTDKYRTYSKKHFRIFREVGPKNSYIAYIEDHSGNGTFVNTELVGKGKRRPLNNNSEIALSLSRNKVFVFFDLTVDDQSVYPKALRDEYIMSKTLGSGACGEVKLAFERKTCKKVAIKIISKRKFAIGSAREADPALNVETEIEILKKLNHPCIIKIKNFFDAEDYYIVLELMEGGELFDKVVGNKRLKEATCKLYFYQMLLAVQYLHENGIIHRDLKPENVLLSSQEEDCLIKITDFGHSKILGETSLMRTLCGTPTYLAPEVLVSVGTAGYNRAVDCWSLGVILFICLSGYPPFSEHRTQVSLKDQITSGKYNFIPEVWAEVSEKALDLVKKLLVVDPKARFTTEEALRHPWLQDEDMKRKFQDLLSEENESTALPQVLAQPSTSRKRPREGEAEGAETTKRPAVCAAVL
row,Variant,effect of a mutation on the interaction
1,Y87C,with no effect

# Variants of: B1
# Conditions: with ch3l1_human CHI3L1, P36222
row,Variant,effect of a mutation on the interaction
1,Y87C,with no effect

# Variants of: B1
# Conditions: with csf1r_human CSF1R
row,Variant,effect of a mutation on the interaction
1,Y87C,with no effect

# Variants of: B1
# Conditions: with ctla4_human CTLA4, P16410
row,Variant,effect of a mutation on the interaction
1,Y87C,with no effect

# Variants of: B1
# Conditions: with cul3_human CUL3, Q13618
row,Variant,effect of a mutation on the interaction
1,Y87C,with no effect

# Variants of: B1
# Conditions: with cul4b_human CUL4B
row,Variant,effect of a mutation on the interaction
1,Y87C,with no effect

# Variants of: B1
# Conditions: with daxx_human DAXX
row,Variant,effect of a mutation on the interaction
1,Y87C,with no effect

# Variants of: B1
# Conditions: with ddx5_human DDX5, P17844
row,Variant,effect of a mutation on the interaction
1,Y87C,with no effect

# Variants of: B1
# Conditions: with dll3_human DLL3, Q9NYJ7
row,Variant,effect of a mutation on the interaction
1,Y87C,with no effect

# Variants of: B1
# Conditions: with duox2_human DUOX2, Q9NRD8
# duox2_human DUOX2, Q9NRD8, sequence (Q9NRD8 whole entry): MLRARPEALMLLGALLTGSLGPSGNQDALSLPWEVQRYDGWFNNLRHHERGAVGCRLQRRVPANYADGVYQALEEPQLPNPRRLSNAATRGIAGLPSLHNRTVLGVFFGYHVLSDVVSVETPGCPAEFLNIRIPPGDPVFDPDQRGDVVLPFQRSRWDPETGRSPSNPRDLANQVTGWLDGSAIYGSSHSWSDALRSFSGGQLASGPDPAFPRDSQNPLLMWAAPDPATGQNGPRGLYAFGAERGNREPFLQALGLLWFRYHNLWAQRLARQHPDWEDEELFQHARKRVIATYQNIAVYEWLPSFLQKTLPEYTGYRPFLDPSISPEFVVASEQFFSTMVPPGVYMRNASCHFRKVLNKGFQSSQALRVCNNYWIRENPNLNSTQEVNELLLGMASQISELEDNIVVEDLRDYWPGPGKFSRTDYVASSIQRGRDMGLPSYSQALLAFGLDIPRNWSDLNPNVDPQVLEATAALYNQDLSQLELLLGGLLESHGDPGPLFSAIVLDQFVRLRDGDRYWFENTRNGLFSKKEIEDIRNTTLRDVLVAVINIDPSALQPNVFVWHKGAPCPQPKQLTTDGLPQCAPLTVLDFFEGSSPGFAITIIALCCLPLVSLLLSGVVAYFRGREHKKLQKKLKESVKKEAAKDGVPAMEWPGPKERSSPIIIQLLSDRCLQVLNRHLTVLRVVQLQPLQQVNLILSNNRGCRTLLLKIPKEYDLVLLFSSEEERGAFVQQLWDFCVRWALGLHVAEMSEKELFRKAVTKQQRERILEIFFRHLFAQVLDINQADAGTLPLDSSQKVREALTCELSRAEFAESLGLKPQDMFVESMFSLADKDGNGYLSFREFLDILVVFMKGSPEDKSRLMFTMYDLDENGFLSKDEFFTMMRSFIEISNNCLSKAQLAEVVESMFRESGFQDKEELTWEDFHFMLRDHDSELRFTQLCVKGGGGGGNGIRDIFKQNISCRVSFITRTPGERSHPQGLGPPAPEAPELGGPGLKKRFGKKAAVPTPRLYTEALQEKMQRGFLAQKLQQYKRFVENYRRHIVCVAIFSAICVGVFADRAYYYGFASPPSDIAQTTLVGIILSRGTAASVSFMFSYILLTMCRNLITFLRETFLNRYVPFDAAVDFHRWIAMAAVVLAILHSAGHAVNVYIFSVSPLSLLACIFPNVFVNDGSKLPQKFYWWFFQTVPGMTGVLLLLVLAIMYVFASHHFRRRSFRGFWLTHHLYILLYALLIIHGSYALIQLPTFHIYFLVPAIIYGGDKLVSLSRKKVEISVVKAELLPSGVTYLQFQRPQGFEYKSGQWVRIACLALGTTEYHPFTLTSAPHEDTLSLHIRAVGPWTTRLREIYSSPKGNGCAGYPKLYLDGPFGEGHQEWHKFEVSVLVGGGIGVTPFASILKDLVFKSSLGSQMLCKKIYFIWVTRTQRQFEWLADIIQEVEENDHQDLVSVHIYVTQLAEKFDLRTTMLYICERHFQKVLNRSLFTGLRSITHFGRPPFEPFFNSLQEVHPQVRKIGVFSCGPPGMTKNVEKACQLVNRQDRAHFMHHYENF
row,Variant,effect of a mutation on the interaction
1,Y87C,with no effect

# Variants of: B1
# Conditions: with e2f1_human E2F1, Q01094
row,Variant,effect of a mutation on the interaction
1,Y87C,with no effect

# Variants of: B1
# Conditions: with e2f2_human E2F2, Q14209
row,Variant,effect of a mutation on the interaction
1,Y87C,with no effect

# Variants of: B1
# Conditions: with e2f3_human E2F3, O00716
row,Variant,effect of a mutation on the interaction
1,Y87C,with no effect

# Variants of: B1
# Conditions: with e2f5_human E2F5, Q15329
row,Variant,effect of a mutation on the interaction
1,Y87C,with no effect

# Variants of: B1
# Conditions: with e2f6_human E2F6, O75461
# e2f6_human E2F6, O75461, sequence (O75461 whole entry): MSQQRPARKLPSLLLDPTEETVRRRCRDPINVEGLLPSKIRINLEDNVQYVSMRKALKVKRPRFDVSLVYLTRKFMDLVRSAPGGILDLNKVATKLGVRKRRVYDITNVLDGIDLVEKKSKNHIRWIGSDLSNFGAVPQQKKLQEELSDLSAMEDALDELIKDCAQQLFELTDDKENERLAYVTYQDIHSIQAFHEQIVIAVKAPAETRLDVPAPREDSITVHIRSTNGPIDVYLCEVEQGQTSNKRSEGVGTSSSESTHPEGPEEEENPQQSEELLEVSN
row,Variant,effect of a mutation on the interaction
1,Y87C,with no effect

# Variants of: B1
# Conditions: with e2f8_human E2F8, A0AVK6
# e2f8_human E2F8, A0AVK6, sequence (A0AVK6 whole entry): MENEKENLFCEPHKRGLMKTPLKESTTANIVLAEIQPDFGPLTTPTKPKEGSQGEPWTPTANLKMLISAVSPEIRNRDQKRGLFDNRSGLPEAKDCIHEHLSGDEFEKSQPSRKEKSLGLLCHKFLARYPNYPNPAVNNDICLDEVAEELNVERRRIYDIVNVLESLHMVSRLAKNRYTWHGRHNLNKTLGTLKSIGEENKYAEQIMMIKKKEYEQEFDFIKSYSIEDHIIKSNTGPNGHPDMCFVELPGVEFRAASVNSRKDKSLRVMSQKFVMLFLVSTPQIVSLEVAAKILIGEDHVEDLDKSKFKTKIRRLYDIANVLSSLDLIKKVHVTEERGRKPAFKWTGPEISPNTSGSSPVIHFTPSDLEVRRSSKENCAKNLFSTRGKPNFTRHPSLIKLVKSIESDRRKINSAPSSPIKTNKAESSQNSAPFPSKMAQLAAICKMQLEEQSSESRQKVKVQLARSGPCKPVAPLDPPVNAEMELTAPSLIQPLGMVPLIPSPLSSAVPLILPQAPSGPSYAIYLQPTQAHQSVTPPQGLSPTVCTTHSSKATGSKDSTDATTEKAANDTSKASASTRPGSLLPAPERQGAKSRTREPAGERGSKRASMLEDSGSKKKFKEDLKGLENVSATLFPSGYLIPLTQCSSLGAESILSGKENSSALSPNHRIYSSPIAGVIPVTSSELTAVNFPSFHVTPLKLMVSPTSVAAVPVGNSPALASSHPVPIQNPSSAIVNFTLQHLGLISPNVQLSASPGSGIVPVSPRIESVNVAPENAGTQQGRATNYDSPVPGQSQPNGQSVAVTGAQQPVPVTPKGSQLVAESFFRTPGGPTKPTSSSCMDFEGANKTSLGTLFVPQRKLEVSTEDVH
row,Variant,effect of a mutation on the interaction
1,Y87C,with no effect

# Variants of: B1
# Conditions: with if4e_human EIF4E
row,Variant,effect of a mutation on the interaction
1,Y87C,with no effect

# Variants of: B1
# Conditions: with epha7_human EPHA7, Q15375
row,Variant,effect of a mutation on the interaction
1,Y87C,with no effect

# Variants of: B1
# Conditions: with ephb1_human EPHB1, P54762
row,Variant,effect of a mutation on the interaction
1,Y87C,with no effect

# Variants of: B1
# Conditions: with erbb3_human ERBB3, P21860
row,Variant,effect of a mutation on the interaction
1,Y87C,with no effect

# Variants of: B1
# Conditions: with erbb4_human ERBB4, Q15303
row,Variant,effect of a mutation on the interaction
1,Y87C,with no effect

# Variants of: B1
# Conditions: with esr1_human ESR1, P03372
row,Variant,effect of a mutation on the interaction
1,Y87C,with no effect

# Variants of: B1
# Conditions: with etv1_human ETV1, P50549
row,Variant,effect of a mutation on the interaction
1,Y87C,with no effect

# Variants of: B1
# Conditions: with ezh1_human EZH1, Q92800
row,Variant,effect of a mutation on the interaction
1,Y87C,with no effect

# Variants of: B1
# Conditions: with ezh2_human EZH2, Q15910
row,Variant,effect of a mutation on the interaction
1,Y87C,with no effect

# Variants of: B1
# Conditions: with facd2_human FANCD2, Q9BXW9
# facd2_human FANCD2, Q9BXW9, sequence (Q9BXW9 whole entry): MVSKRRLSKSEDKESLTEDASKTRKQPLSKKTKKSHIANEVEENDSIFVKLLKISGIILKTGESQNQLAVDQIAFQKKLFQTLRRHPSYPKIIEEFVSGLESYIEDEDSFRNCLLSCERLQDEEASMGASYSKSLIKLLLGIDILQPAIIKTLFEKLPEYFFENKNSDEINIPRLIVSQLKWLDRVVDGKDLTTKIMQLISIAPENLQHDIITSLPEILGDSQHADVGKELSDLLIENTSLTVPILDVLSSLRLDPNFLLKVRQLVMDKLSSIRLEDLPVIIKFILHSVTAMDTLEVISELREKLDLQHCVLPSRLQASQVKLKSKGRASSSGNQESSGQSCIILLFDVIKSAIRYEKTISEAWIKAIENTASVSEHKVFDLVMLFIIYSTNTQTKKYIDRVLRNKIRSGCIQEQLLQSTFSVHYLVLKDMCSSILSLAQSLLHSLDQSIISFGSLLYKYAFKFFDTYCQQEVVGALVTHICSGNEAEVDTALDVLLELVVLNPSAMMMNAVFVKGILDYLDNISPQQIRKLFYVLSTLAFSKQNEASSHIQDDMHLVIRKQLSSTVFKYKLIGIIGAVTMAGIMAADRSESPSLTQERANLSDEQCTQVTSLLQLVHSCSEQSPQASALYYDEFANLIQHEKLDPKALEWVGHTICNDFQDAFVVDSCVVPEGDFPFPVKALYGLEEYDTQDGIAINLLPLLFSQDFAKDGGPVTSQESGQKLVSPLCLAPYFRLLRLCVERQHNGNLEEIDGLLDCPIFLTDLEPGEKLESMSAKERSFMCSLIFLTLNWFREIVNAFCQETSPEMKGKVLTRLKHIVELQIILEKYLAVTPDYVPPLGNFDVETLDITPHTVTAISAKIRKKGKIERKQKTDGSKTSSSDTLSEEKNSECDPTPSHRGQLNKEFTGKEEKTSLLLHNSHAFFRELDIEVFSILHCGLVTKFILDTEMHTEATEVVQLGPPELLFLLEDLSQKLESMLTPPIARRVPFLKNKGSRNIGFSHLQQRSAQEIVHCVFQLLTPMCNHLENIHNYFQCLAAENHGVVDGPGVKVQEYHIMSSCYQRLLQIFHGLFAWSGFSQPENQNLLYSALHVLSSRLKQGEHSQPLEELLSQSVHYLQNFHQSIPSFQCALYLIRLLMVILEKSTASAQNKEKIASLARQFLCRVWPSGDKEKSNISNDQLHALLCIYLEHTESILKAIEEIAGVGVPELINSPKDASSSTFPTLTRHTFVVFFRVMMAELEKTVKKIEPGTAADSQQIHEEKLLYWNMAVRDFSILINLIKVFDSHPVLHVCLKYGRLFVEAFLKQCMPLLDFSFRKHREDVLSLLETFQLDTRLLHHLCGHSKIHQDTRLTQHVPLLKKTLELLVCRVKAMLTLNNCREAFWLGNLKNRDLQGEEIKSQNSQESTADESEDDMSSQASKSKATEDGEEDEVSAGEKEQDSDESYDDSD
row,Variant,effect of a mutation on the interaction
1,Y87C,with no effect

# Variants of: B1
# Conditions: with tnr6_human FAS
row,Variant,effect of a mutation on the interaction
1,Y87C,with no effect

# Variants of: B1
# Conditions: with fgf19_human FGF19, O95750
# fgf19_human FGF19, O95750, sequence (O95750 whole entry): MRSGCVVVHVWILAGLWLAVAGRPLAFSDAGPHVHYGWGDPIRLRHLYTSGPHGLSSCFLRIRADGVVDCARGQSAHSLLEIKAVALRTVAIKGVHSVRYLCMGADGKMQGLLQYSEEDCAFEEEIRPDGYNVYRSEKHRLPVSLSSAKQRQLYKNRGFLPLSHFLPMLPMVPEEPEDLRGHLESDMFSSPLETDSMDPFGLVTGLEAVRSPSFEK
row,Variant,effect of a mutation on the interaction
1,Y87C,with no effect

# Variants of: B1
# Conditions: with fgfp1_human FGFBP1, Q14512
row,Variant,effect of a mutation on the interaction
1,Y87C,with no effect

# Variants of: B1
# Conditions: with fgfr4_human FGFR4, P22455
row,Variant,effect of a mutation on the interaction
1,Y87C,with no effect

# Variants of: B1
# Conditions: with fumh_human FH
row,Variant,effect of a mutation on the interaction
1,Y87C,with no effect
